# The supplement of paper PMC9732359
# ± gives the uncertainty stated by the source.
# Assay: protein stability index of a GFP-peptide fusion (yeast GPS) (PSI 1-4); higher = more stable; sorted into four equal gates, so the index is relative within each strain
# How it was run: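 Yeast carrying a pooled library were grown to mid-log phase in leucine-free medium. Each library plasmid expresses Cherry and has a tiled 17-residue yeast protein peptide fused downstream of GFP. Cells were sorted into four equal gates by GFP/Cherry ratio, and plasmids from each gate were PCR-amplified, Illumina-sequenced and assigned to strains by barcode. Summing, across gates, the read frequency times the gate number gave each peptide's protein stability index.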
Sequence,protein stability index (doa10∆),protein stability index (pdr5∆),protein stability index (ubr1∆),protein stability index (san1∆)
KGPLLIERIGHLLSINY [PCI8],2.35 ± 0.11,2.71 ± 0.15,3.11 ± 0.15,
LFPEQQNKEIKAERVED [RPL6A],3.61 ± 0.11,3.14 ± 0.1,3.35 ± 0.056,3.59 ± 0.065
TLKNRGLPLGIAEEKMW [YGR119C/NUP57],1.8 ± 0.078,1.7 ± 0.078,1.89 ± 0.039,1.44 ± 0.29
DGMYSESKLSLETLFNR [FAS2],3.39 ± 0.075,3.25 ± 0.09,3.33 ± 0.048,3.32 ± 0.046
GALEEITKDHKVLARQQ [FAS2],2.31 ± 0.25,,2.73 ± 0.17,3.01 ± 0.12
NLLKDEGVTPGRIRTTR [SSN3],3.1 ± 0.26,2.87 ± 0.23,,3.26 ± 0.12
TEEELQAAVPDNAEDDS [BRN1],3.2 ± 0.094,3.14 ± 0.089,3.02 ± 0.055,3.05 ± 0.083
VNQTGSTKKDTVQLTFL [YCG1],3.05 ± 0.29,3 ± 0.16,2.9 ± 0.16,
LLVIGGNQRKILQYSRT [YJR042W/NUP85],1.86 ± 0.091,2.27 ± 0.096,1.4 ± 0.072,1.46 ± 0.14
NSFIKANLPWLGKAQNW [RPN2],,2.6 ± 0.13,,
DDIYDISLLKNRRKQSF [RPN4],2.91 ± 0.11,3.08 ± 0.12,3.1 ± 0.14,3.13 ± 0.12
IILLGVLEDCRHLPMYT [ITC1],1.37 ± 0.064,1.59 ± 0.054,2.47 ± 0.067,2.44 ± 0.099
HAQSKREGRHSGYGKRK [RPL19A],2.8 ± 0.086,2.9 ± 0.08,2.96 ± 0.042,2.85 ± 0.05
LPTRYTLDVEAFKSVVS [RPL27A],1.33 ± 0.031,1.55 ± 0.039,1.34 ± 0.031,1.62 ± 0.066
KVKNQGADVTNTTQDNG [YCS4],3.17 ± 0.086,3.19 ± 0.084,3.2 ± 0.057,3.11 ± 0.049
ALLRENQDSVKTYALES [RPN2],3.35 ± 0.15,2.56 ± 0.16,2.94 ± 0.1,2.56 ± 0.12
IDDENITKLNKEIRAFD [SRB4],3.44 ± 0.066,3.33 ± 0.063,3.38 ± 0.056,3.27 ± 0.043
PKNVKGEEDADEEETAE [RPN1],3.21 ± 0.17,3.16 ± 0.26,,3.01 ± 0.14
KSLLLNTLNIDNTARVI [BRN1],2.71 ± 0.057,2.48 ± 0.052,2.42 ± 0.034,2.47 ± 0.066
KAPLQPNSERETDHANT [IRR1],2.6 ± 0.083,2.98 ± 0.062,2.88 ± 0.047,2.59 ± 0.068
QVPSSLIVRAKNHTHNL [RRP4],2.56 ± 0.076,2.89 ± 0.06,2.87 ± 0.055,2.67 ± 0.072
TTTKIIDSTDHIRKASS [LRP1],2.19 ± 0.048,2.07 ± 0.039,2.32 ± 0.038,1.64 ± 0.066
KFFTQSNLEKLPKYKEK [MED7],2.43 ± 0.046,2.7 ± 0.048,2.62 ± 0.04,2.82 ± 0.053
AEVQSLFQDGSASLHTR [RRP4],2.57 ± 0.13,2.78 ± 0.16,,2.85 ± 0.1
TAVAFWSWDIAVDNCAI [HRT1],1.33 ± 0.07,1.49 ± 0.067,1.55 ± 0.043,1.52 ± 0.12
APDGSASISLPNHIPSV [SWP82],3.36 ± 0.11,2.54 ± 0.068,3.3 ± 0.044,2.77 ± 0.097
DESDTISFRSNLLKNFI [SNF6],2.04 ± 0.084,2.55 ± 0.12,2.41 ± 0.079,2.58 ± 0.15

Sequence,protein stability index (doa10∆),protein stability index (pdr5∆),protein stability index (ubr1∆),protein stability index (san1∆)
YEAPRHGHLGFLPRKRA [RPL3],2.99 ± 0.1,3.03 ± 0.071,2.72 ± 0.09,2.88 ± 0.05
LRNNLNSLIEEINERSE [YCG1],3.13 ± 0.094,3.31 ± 0.095,3.01 ± 0.073,2.96 ± 0.075
GRPQRKMMSFQANPTEE [RPB5],,3.2 ± 0.17,3.53 ± 0.19,3.44 ± 0.094
TKTILSGTDGSTIGILL [SRP72],3 ± 0.064,2.81 ± 0.062,3.01 ± 0.065,3.06 ± 0.084
DRVKVIECFKPGDIVRA [CSL4],2.66 ± 0.13,2.39 ± 0.14,2.36 ± 0.16,2.1 ± 0.18
LYDRPLKPDLNKITNQG [NAS6],3.22 ± 0.096,3.42 ± 0.1,3.4 ± 0.073,3.11 ± 0.07
QALEKIGIVEISPKGGR [RPS19A],2.46 ± 0.15,2.74 ± 0.18,2.56 ± 0.15,2.2 ± 0.13
PTIEYVQCPTVIKLAKY [ARP9],1.97 ± 0.047,1.87 ± 0.034,1.98 ± 0.032,1.75 ± 0.068
ADNVDKILEQFEYVLYP [FAS2],2.05 ± 0.067,1.94 ± 0.089,2.57 ± 0.08,2.17 ± 0.094
SNTMYSVRLFSFLDPLN [YJL039C/NUP192],1.41 ± 0.048,1.48 ± 0.061,1.69 ± 0.059,1.83 ± 0.063
HPAHVMWSVARAGQRGY [RPL3],1.68 ± 0.2,1.83 ± 0.22,1.24 ± 0.12,1.5 ± 0.13
DIIVAIKIFELKLPADA [IRR1],1.54 ± 0.078,1.21 ± 0.071,1.83 ± 0.052,1.59 ± 0.14
RTWYESFCGFLLYYIPS [YJR042W/NUP85],1.88 ± 0.055,1.43 ± 0.047,1.99 ± 0.057,1.58 ± 0.11
ITKFALFAESHDVLQKL [YML103C/NUP188],2.34 ± 0.1,1.78 ± 0.2,2.45 ± 0.075,2.02 ± 0.13
DRSKPVALTSFLGYKAG [RPL3],2.85 ± 0.075,2.89 ± 0.063,2.09 ± 0.036,3.08 ± 0.06
NEIEGKNEETPQNEKPP [RPC25],2.76 ± 0.21,3.14 ± 0.15,3.3 ± 0.078,2.22 ± 0.11
GGSFGNREEFINKLVKS [RPL7A],2.98 ± 0.22,,2.93 ± 0.077,3.18 ± 0.17
KFQGVLESEAQKKATMS [RPC34],3.54 ± 0.18,3.01 ± 0.18,3.34 ± 0.11,
KCSATNRIIKADDHASV [RPS21A],2.92 ± 0.053,2.96 ± 0.053,3.11 ± 0.039,3.13 ± 0.049
ELEQLVEFNRKVVIPNL [RPN3],3.3 ± 0.14,2.77 ± 0.28,3.25 ± 0.11,3.26 ± 0.071
TTIDSLNAELESKLIPQ [SMC3],3.06 ± 0.12,3.03 ± 0.085,3.1 ± 0.066,2.46 ± 0.14
TNHVLEVFSVLGIEAAR [RPO31],2.21 ± 0.19,2.4 ± 0.11,3.02 ± 0.24,2.77 ± 0.076
STSNTPSPPNVIITDGT [YDL088C/ASM4],2.79 ± 0.031,2.95 ± 0.031,2.956 ± 0.029,2.9 ± 0.035
NGKLTSANERLFGNRPS [YML031W/NDC1],2.72 ± 0.11,3.03 ± 0.076,2.94 ± 0.066,2.69 ± 0.094
QNSLLTNTHPNFLSKIR [SNF2],2.96 ± 0.073,2.92 ± 0.075,2.94 ± 0.047,3.01 ± 0.07
ETFQDTFSGALGKQSSS [FAS2],3.23 ± 0.063,3.32 ± 0.066,3.11 ± 0.055,3.15 ± 0.039
